Measurements: US20250269018A1, “COMBINED CANCER THERAPY WITH AN EPITHELIAL CELL ADHESION MOLECULE (EPCAM) INHIBITOR AND A HEPATOCYTE GROWTH FACTOR RECEPTOR (HGFR) INHIBITOR” (ACADEMIA SINICA, priority 2021, published 2025)

T1: EpCAM wild-type (expressed in HEK293T cells, FIG. 8D-8G) (human, UniProt P16422 24-314)
T1 sequence: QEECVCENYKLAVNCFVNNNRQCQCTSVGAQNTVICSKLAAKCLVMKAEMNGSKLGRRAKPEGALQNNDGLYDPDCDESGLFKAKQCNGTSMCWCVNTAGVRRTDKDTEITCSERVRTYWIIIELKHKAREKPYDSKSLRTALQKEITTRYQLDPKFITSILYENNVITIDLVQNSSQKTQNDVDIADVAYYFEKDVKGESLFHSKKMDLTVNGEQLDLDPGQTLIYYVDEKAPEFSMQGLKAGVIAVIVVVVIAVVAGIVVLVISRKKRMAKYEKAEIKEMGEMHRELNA

B1: F(ab′)2 of EpAb2-6 (antibody, V domains shown)
VH: VKLQESGPELKKPGETVKISCKASGYTFTDYSMHWVKQAPGKGLKWMGWINTETGEPTYADDFKGRFAFSLETSASTAYLQINNLKNEDTATYFCARTAVYWGQGTTVTVSS
VL: DIQMTQSPSSLSASLGERVSLTCRASQEISVSLSWLQQEPDGTIKRLIYATSTLDSGVPKRFSGSRSGSDYSLTISSLESEDFVDYYCLQYASYPWTFGGGTKLEIKR
notes: F(ab′)2 fragment of mouse EpAb2-6; also called divalent antibody fragments F(ab′)2 of EpAb2-6
B2: EpAb2-6 (mouse monoclonal IgG) (antibody, V domains shown)
VH: B1 VH
VL: B1 VL
notes: Mouse hybridoma IgG; also called mouse EpAb2-6; mEpAb2-6
B3: EpCAMΔEGFI+II-V5 (other)
chain: QEESKLAAKSERVRTYWIIIELKHKAREKPYDSKSLRTALQKEITTRYQLDPKFITSILYENNVITIDLVQNSSQKTQNDVDIADVAYYFEKDVKGESLFHSKKMDLTVNGEQLDLDPGQTLIYYVDEKAPEFSMQGLKAGVIAVIVVVVIAVVAGIVVLVISRKKRMAKYEKAEIKEMGEMHRELNA
notes: also called both domain-deleted mutants; not shown: V5 tag
B4: endogenous EpCAM (HCT116 and HT29 cells) (other)
chain: T1 sequence
notes: Endogenous protein of human colon cancer cell lines, immunoprecipitated from lysates; also called epithelial cell adhesion molecule
B5: EpCAM-V5 (full length, expressed in HEK293T cells) (other)
chain: T1 sequence
notes: also called exogenous EpCAM; not shown: V5 tag
B6: EpEXΔEGFI+II-His (ligand)
chain: QEESKLAAKSERVRTYWIIIELKHKAREKPYDSKSLRTALQKEITTRYQLDPKFITSILYENNVITIDLVQNSSQKTQNDVDIADVAYYFEKDVKGESLFHSKKMDLTVNGEQLDLDPGQTLIYYVDEKAPEFSMQGLK
notes: EpEX lacking aa 27-59 and 66-135; also called EGF like-domain deletion mutant EpEX-His; soluble EpEX mutant protein; not shown: His tag
B7: EpEXΔEGFI+II-Fc (Fc fusion)
chain: B6 chain
notes: EpEX lacking aa 27-59 and 66-135, coated on ELISA plates at 1 µg/ml; also called EpEXΔEGFI+II mutant protein; EGF like-domain deletion mutant-Fc; not shown: Fc
B8: EpEX-Fc (Fc fusion)
chain: QEECVCENYKLAVNCFVNNNRQCQCTSVGAQNTVICSKLAAKCLVMKAEMNGSKLGRRAKPEGALQNNDGLYDPDCDESGLFKAKQCNGTSMCWCVNTAGVRRTDKDTEITCSERVRTYWIIIELKHKAREKPYDSKSLRTALQKEITTRYQLDPKFITSILYENNVITIDLVQNSSQKTQNDVDIADVAYYFEKDVKGESLFHSKKMDLTVNGEQLDLDPGQTLIYYVDEKAPEFSMQGLK
notes: also called recombinant EpEX-Fc; not shown: Fc
B9: EpEX-His (extracellular domain of EpCAM, His-tagged) (ligand)
chain: B8 chain
notes: It was made in Expi293 cells and purified on Ni-NTA; also called soluble EpEX; secreted EpEX; not shown: His tag

Columns and labels:
[1] = target: B9; test: ELISA on coated EpEX-His (1 µg/ml) (FIG. 7A)
[2] = target: T1, EpCAM wild-type (expressed in HEK293T …); test: immunofluorescence, flow cytometry and cellular ELISA on transfected HEK293T cells (FIG. 8E-8G)
[3] = target: B9; test: ELISA on coated EpEX-His (1 µg/ml) (title of the legend, FIG. 7A)
[4] = target: B5; test: Western blotting, flow cytometry and immunofluorescence on transfected HEK293T cells (title of the legend, FIG. 8A-8C)
[5] = target: T2, HGFRECD-c-Myc (extracellular domain of HGFR with c-Myc tag, expressed in HEK293T cells) (UniProt P08581 25-932); test: co-IP from transfected HEK293T cells, Western blotting (FIG. 1F)
T2 construct: extracellular domain; also called HGFRECD-c-Myc-tag; not shown: c-Myc tag

[6] = target: T3, endogenous HGFR (HCT116 and HT29 cells) (human, UniProt P08581 25-1390); test: co-IP of endogenous proteins after DTSSP cross-linking, HCT116 and HT29 cells (FIG. 1A)
T3 construct: whole, on cells; also called c-MET; hepatocyte growth factor receptor

[7] = target: T2, HGFRECD-c-Myc (extracellular domain of …); test: co-IP from HEK293T cells overexpressing EpCAM-V5 and HGFRECD-c-Myc (FIG. 1B)
[8] = target: T2, HGFRECD-c-Myc (extracellular domain of …); test: co-IP with anti-c-Myc from transfected HEK293T cells, Western blotting (FIG. 1G)
[9] = target: T4, HGFR-His recombinant protein (human, UniProt P08581 25-932); test: ELISA, HGFR-His added to plates coated with mutant-Fc (1 µg/ml) (FIG. 1H)
T4 construct: extracellular domain; also called HGFRECD-His recombinant protein; not shown: His tag

[10] = target: T4, HGFR-His recombinant protein; test: ELISA, HGFR-His (2 µg/ml) on coated EpEX-Fc proteins (1 µg/ml) (FIG. 1H)
[11] = target: T2, HGFRECD-c-Myc (extracellular domain of …); test: co-IP from transfected HEK293T cells (restated)
HGFR-Fc protein = target: T5, HGFR-Fc protein (human, UniProt P08581 25-932); test: ELISA, EpEX-His (2 µg/ml) on coated HGFR-Fc (1 µg/ml) (FIG. 6F)
T5 construct: not shown: Fc
T5 sequence (P08581 25-932): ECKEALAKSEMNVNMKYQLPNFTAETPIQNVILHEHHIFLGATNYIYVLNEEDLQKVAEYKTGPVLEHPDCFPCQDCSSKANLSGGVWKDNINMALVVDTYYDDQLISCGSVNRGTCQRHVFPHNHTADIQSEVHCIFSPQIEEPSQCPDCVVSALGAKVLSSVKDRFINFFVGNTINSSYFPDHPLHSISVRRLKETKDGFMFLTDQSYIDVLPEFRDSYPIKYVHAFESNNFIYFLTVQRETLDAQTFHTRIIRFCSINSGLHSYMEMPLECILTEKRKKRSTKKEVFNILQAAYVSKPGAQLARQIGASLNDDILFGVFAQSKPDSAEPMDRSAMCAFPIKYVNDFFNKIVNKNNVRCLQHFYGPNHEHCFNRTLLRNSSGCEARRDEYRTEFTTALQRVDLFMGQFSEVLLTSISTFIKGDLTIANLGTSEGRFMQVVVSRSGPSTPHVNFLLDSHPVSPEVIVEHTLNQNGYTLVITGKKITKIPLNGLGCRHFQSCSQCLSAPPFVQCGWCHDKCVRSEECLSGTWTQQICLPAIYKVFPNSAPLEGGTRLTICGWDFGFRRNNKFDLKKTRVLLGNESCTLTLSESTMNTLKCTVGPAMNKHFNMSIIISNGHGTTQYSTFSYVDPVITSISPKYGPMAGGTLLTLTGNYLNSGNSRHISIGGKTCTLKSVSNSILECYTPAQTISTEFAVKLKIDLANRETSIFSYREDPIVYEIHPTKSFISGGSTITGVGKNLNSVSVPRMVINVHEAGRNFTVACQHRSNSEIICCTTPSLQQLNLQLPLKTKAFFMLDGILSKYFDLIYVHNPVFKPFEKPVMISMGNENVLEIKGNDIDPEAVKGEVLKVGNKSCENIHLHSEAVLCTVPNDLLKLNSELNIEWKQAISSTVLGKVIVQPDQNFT

T2 sequence (P08581 25-932): as above
T4 sequence (P08581 25-932): as above
T3 sequence (P08581 25-1390): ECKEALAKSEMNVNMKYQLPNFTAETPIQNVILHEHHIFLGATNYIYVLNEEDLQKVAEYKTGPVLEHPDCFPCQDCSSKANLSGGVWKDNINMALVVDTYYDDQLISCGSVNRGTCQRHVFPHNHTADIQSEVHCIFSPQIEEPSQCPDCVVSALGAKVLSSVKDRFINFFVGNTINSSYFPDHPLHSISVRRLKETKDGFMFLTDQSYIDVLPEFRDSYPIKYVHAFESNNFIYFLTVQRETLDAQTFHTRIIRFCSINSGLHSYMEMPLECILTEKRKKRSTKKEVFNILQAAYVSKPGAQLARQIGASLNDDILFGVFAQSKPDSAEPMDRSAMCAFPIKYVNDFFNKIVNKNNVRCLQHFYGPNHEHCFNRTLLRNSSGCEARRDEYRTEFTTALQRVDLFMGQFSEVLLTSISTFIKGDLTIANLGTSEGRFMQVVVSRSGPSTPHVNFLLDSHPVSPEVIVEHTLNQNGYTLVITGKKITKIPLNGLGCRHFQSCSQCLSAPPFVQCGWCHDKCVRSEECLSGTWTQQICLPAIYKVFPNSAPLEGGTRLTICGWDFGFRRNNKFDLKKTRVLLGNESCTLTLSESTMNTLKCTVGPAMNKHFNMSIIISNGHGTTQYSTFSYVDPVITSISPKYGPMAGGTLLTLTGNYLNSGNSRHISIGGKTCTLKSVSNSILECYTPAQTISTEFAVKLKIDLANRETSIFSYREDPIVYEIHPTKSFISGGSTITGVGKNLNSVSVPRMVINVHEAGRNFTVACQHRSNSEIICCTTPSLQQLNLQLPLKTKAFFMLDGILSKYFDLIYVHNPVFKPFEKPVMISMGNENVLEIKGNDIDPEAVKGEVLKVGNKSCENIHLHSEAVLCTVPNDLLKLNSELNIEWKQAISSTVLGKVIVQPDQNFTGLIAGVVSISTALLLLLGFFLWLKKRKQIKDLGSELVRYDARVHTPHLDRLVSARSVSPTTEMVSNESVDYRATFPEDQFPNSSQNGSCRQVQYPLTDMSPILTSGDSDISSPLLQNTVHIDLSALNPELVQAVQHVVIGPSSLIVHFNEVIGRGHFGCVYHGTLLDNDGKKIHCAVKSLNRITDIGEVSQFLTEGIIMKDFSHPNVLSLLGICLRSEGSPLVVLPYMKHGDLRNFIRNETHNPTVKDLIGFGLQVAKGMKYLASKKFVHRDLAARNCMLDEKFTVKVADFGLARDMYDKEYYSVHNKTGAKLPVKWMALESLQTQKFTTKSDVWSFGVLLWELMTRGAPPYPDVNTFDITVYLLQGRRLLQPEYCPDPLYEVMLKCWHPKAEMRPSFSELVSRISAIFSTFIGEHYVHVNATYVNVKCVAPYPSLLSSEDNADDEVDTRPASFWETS

Binder: B1
binding result [1]: binds

Binder: B2
binding result [2]: binds
binding result [3]: binds
binding result [4]: binds

Binder: B3
binding result [5]: no binding

Binder: B4
binding result [6]: binds

Binder: B5
binding result [7]: binds

Binder: B6
binding result [8]: no binding

Binder: B7
binding result [9]: no binding (tested: 2 µg/ml)

Binder: B8
binding result [10]: binds

Binder: B9
binding result [11]: binds
binding result (HGFR-Fc protein): binds
